The values that follow come from patent publication US12662531B2, “CLDN18.2 antibody and use thereof” (FUTUREGEN BIOPHARMACEUTICAL (BEIJING) CO., LTD., priority 2019, dated 2026).

Test [1] deals with T1, CLDN18.2 (CLDN18.2-Flag 293t cells) (Homo sapiens, UniProt P56856).
T1 construct: expressed in transfected cells; host or cells: 293t cells, transient transfection
Description: Binding specificity, 293t cells expressing CLDN18.2-Flag, flow cytometry. The following applies: 10 μg/ml antibody, 4° C. 1 hour. The text has this: (§1) Human Claudin18 proteins include two homologues, i.e., CLDN18.1 and CLDN18.2, which share exons other than exon 1, and the exon 1 sequences of CLDN18.1 and CLDN18.2 are highly similar with only 8 different amino acids in the first extracellular region. The exon 1 of CLDN18.1 and the exon 1 of CLDN18.2 are specifically expressed in different tissues driven by different promoters. Among them, CLDN18.1 is specifically expressed in lung epithelial cells, while CLDN18.2 is specifically expressed in gastric epithelial cells. To identify the specificity of the screened CLDN18.2 antibodies, binding of the antibodies to CLDN18.1 and CLDN18.2 was tested.
(§2) Specifically, well-grown 293t cells were taken to transiently express flag-tagged CLDN18.1 (CLDN18.1-Flag) or CLDN18.2 (CLDN18.2-Flag). 48 hours after transfection, the cells were digested with trypsin. After washed with flow cytometry buffer, the cells were mixed with 10 μg/ml of isotype control antibody or one of the above five CLDN18.2 antibodies in 200 μl of flow cytometry buffer, and were incubated at 4° C. for 1 hour. Subsequently, the cells were washed once with flow cytometry buffer, PE-labeled anti-human IgG antibody was added, and incubated at 4° C. for 30 min. The supernatant was removed by centrifugation, wash was performed twice with flow cytometry buffer, and the cells were fixed in a fix solution containing 1% paraformaldehyde and 0.5% triton-X100 and the cell membrane was permeabilized. Subsequently, the cells were incubated with APC-labeled anti-flag antibody for 30 min and tested by flow cytometry.

The next test relates to control CT26 cell line. As to the kind of experiment: Flow cytometry binding to control CT26 cell line. The following applies: results not shown. In general terms: Flow cytometry measures light scatter and fluorescence of single cells or particles in a stream.
Test [2] concerns the target T2, CLDN18.2 (CT26-CLDN18.2 cells) (Homo sapiens, UniProt P56856).
T2 construct: expressed in transfected cells; host or cells: CT26 cells (mouse), lentiviral transduction, puromycin selection
As to the kind of experiment: Flow cytometry binding of recombinant antibodies to CT26-CLDN18.2 cells. The note with it: 4° C. 1 hour. The protocol:
Binding activities of the recombinant monoclonal antibodies to CLDN18.2 were determined. Specifically, well-grown cell lines stably expressing CT26-CLDN18.2 were taken. The cells were washed with PBS, mixed with the fold-diluted antibody and incubated at 4° C. for 1 hour. The cells were washed once with flow cytometry buffer, PE-labeled anti-human IgG antibody was added, and incubated at 4° C. for 30 minutes. The supernatant was removed by centrifugation, and after the cells were washed with flow cytometry buffer, the fluorescence intensity on the surface of the cells was tested by flow cytometry. The relative binding activity of each antibody was calculated using the average fluorescence intensity.
The binding activity of the defucosylated antibodies 18.2-A1F, 18.2-A3F and 18.2-A4F to CLDN18.2 as compared to the binding activity of 18.2-A1, 18.2-A3 and 18.2-A4 to CLDN18.2 was tested by flow cytometry, the method of which is as described in Example 5, and the experimental results are shown in FIG. 7.

Test [3] has as its system untransfected Jurkat cells. As to the kind of experiment: Flow cytometry binding to untransfected Jurkat cells. The following applies: results not shown.
The test system of test [4] is human FcγRIIIa (V158) on FcγRIIIa-Jurkat cells. Description: Flow cytometry binding to FcγRIIIa-Jurkat cells. The text has this: We next further tested the binding activity of the CLDN18.2 antibodies and their defucosylated forms to FcγRIIIa expressed on the cell surface. Specifically, the human FcγRIIIa (V158, high FC binding subtype) gene was cloned into a mammalian cell expression vector carrying a puromycin screening marker and transfected into a Jurkat cell line. A cell line stably expressing FcγRIIIa (FcγRIIIa-Jurkat) was screened with puromycin. In addition, NK92MI is a human NK cell line that naturally expresses the FcγRIIIa receptor (F158, low FC binding subtype). The binding ability of the CLDN18.2 antibodies and their defucosylated forms to FcγRIIIa expressed on the surface of FcγRIIIa-jurkat cells and NK92MI cells was tested by flow cytometry. The specific flow cytometry assay is described with reference to Example 6.

Test [5] concerns SNU601 cells expressing CLDN18.2. Description: Endocytosis of antibody after binding to SNU601 cells stably expressing CLDN18.2. In kind it is cell-based. The note with it: 10 μg/ml, 4 h. On the procedure: It has been reported that the binding of some antibodies to cell surface antigens can cause endocytosis of antigen and antibody complexes, thereby reducing the expression level of the cell surface antigens and accelerating antibody metabolism in vivo (Schrama D et al., 2006, Nat Rev Drug Discov). In this example, the ability of antibodies 18.2-A1, 18.2-A3, 18.2-A4 and 18.2-A6 to be endocytosed by cells was tested in SNU601 cells stably expressing CLDN18.2. […] Subsequently, they were washed at 4° C. and stained with PE-labeled anti-human IgG antibody. After fixation with 4% formalin, antibody binding on the cell surface was tested by flow cytometry.

Test [6] has as its target T3, CLDN18.1 (CLDN18.1-Flag 293t cells) (Homo sapiens, UniProt P56856).
T3 construct: expressed in transfected cells; host or cells: 293t cells, transient transfection
Description: Binding specificity, 293t cells expressing CLDN18.1-Flag, flow cytometry. The following applies: 10 μg/ml antibody, 4° C. 1 hour.
From the text: as §1, §2

Another test has as its system FcγRIIIa. Description: Biacore binding to FcγRIIIa. The note with it: FcγRIIIa captured as ligand, antibody as analyte. On the procedure: Subsequently, the binding activity of the CLDN18.2 antibody and its defucosylated form to FcγRIIIa was tested using the Biacore method. Specifically, FcγRIIIa (Sino Biological Inc, 10389-H08C1) was diluted to 0.1 μg/ml in HBS-EP buffer as a ligand, and 18.2-A1F and 18.2-A1 antibody samples were diluted to 360 μg/ml, 120 μg/ml, 40 μg/ml, 13.3 μg/ml and 4.4 μg/ml respectively as analytes. The ligand FcγRIIIa was immobilized using an indirect capture method. First, 50 μg/ml of Anti-His IgG was covalently bound to the surface of CMS chip through amino coupling, followed by the binding of the ligand and analyte. Affinity analysis experiments were performed in Biacore Wizard mode using a multi-cycle approach with FcγRIIIa as the ligand and 18.2-A1F and 18.2-A1 antibody samples as analytes.
The test for each sample includes three Start up, one zero concentration control, five gradient concentration samples and one replicate sample (reference). The chip was regenerated with 10 mM glycine-HCl, pH 1.5 regeneration solution after each cycle. Each concentration cycle of the analyte was set with a capture time of 60 s and a flow rate of the ligand solution of 10 μl/min; a binding time of ligand and analyte of 180 s, and a flow rate of the analyte solution of 30 μl/min; and a dissociation time of 180 s. The CMS chip coupled with Anti-His IgG was placed in the slot for detection and analysis. […]
A general note: Surface plasmon resonance follows binding to a sensor surface in real time, without labels.

B1: 18.2-A1: recombinant monoclonal CLDN18.2 antibody, VH SEQ ID NO: 1, VL SEQ ID NO: 6 (antibody, V domains shown)
VH: EVQLVQSGAEVKKPGASVKVSCKASGYTFTSSWLIWVRQAPGQGLEWIGTIVPSDSYTNYNQKFKDRATLTVDKSTSTAYMELSSLRSEDTAVYYCTRFRTGNSFDYWGQGTLVTVSS
VL: DIVMTQSPDSLSVGLGERATINCKSSQSVLNSGNQKNYLTWYQQKPGQPPKLLIYWAVARQSGVPDRFSGSGSGTDFTLTISSLQAEDVAVYYCQNSIAYPFTFGQGTKVEIK
modifications: 18.2-A1 VH; 18.2-A1 VL
For B1, the “binding to CLDN18.2-flag transfected positive 293t cells” value in test [1] was “able to bind well”. Besides, the “binding to control CT26 cell line” value with control CT26 cell line is recorded as “did not bind”. In addition, the “binding to CT26 cell line expressing CLDN18.2” value in test [2] is “able to bind well”. Besides, in test [3], the “binding to untransfected Jurkat cells” value is recorded as “not able to bind”. Moreover, the “binding to FcγRIIIa-jurkat cells” value in test [4] is “able to bind”. Besides, in test [5] (4° C.), the “binding to SNU601 cells expressing CLDN18.2 under 4° C. incubation” value is listed as “bound well”. Further, in test [5] (37° C.), the “antibody staining/binding on the cell surface under 37° C. incubation” value is “still bound well” and the “endocytosis by cells under 37° C. incubation” value is “did not undergo significant endocytosis”. Besides, in test [6], the “binding to CLDN18.1-positive cells” value is “none of the six antibodies bound”. The “binding to FcγRIIIa (Biacore)” value with FcγRIIIa is reported as “able to bind to FcγRIIIa effectively”.
